Patent US20140356285A1, “COMPOSITIONS AND METHODS RELATED TO TISSUE TARGETING” (THE BOARD OF REGENTS OF THE UNIVERSITY OF TEXAS SYSTEM, priority 2011, published 2014)
Blank lines part the entries; values can stand above or below the molecule they belong to. No end group written: not given here. *: point of attachment. Biotin = O=C1N[C@H]2[C@H](CS[C@H]2CCCCC(=O)*)N1

B3: human leukocyte proteinase-3 (PR-3) (enzyme)
chain: IVGGHEAQPHSRPYMASLQMRGNPGSHFCGGTLIHPSFVLTAPHCLRDIPQRLVNVVLGAHNVRTQEPTQQHFSVAQVFLNNYDAENKLNDILLIQLSSPANLSASVTSVQLPQQDQPVPPHGTQCLAMGWGRVGAHDPPAQVLQELNVTVVTFFCRPHNICTFVPRRKAGICCFGDSGGPLICDGIIQGIDSFVIWGCATRLFPDFFTRVAYDWIRSTLR
notes: In the ELISAs the PR-3 was bought (Sigma); also called active PR-3; endogenous PR-3

What was measured:
[1] = target: T1, prohibitin (Homo sapiens, UniProt P35232); assay: Phage binding assay on immobilized prohibitin; settings: increasing concentrations of synthetic peptide (FIG. 3B)
T1 construct: gift from Dr. Srikumar Chellappan (H. Lee Moffitt Cancer Center & Research Institute)
T1 sequence (P35232 1-272): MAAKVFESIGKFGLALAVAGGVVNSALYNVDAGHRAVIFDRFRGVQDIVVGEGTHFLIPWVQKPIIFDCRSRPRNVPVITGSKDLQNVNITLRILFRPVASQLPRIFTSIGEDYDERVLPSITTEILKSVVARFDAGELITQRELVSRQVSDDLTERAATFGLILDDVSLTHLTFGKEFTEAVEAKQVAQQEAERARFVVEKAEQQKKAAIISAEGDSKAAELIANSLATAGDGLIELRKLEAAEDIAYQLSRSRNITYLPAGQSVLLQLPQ
Protocol: (§1) Phage Binding Assays. Binding of targeted phage to immobilized candidate receptors was evaluated as described (Kolonin et al., 2006b). Micro-wells of 96-well plates were blocked with phosphate-buffered saline (PBS) containing 3% BSA, washed, and incubated with 10^9 TU of targeted phage. Inhibition of phage binding was performed in the presence of increasing concentrations of synthetic peptides, as indicated. For phage display screening on immobilized prohibitin, 10^9 TU of phage clones recovered from the second round of in vivo selection were incubated ON with 1 μg of immobilized recombinant GST-prohibitin. Bound phage were recovered by infection of host bacteria (E. coli K91 Kan).

[2] = system: cells of mouse WAT vasculature; settings: previous research (Kolonin et al., 2004); cited from earlier work
[3] = target: T2, PR-3 (Homo sapiens, UniProt P24158); assay: Phage binding competition assay, targeted phage and cognate synthetic peptide; settings: FIG. 4E
T2 construct: purchased Sigma
T2 sequence (P24158 28-248 limits assumed): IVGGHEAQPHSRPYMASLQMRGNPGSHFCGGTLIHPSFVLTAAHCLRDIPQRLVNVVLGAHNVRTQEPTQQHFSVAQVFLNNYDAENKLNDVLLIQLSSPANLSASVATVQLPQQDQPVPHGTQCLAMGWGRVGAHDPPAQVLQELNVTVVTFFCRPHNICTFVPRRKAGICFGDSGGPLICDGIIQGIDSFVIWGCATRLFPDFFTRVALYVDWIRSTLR
Protocol: as §1

[4] = target: T3, ANXA2 (Homo sapiens, UniProt P07355); assay: Capture of GST-prohibitin with immobilized His6-ANXA2; format: binding; settings: recombinant GST-conjugated protein (FIG. 3E)
T3 construct: purchased AmProx
T3 sequence (P07355 whole entry): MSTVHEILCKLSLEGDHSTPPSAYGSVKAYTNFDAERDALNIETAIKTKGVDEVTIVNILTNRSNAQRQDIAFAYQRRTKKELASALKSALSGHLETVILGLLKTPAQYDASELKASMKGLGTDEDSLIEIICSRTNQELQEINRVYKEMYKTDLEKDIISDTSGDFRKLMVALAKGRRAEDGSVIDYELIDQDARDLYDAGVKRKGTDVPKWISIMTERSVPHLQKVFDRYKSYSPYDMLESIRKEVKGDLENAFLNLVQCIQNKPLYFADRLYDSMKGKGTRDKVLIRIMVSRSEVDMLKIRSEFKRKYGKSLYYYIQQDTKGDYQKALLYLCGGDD
Protocol: (§2) Protein Binding Assays. Titration of anti-peptide antibodies was performed on Maxisorb Immunoplates (Nunc) coated with 1 μg/mL of peptides or proteins. Incubation with primary antibodies was followed by signal detection with goat anti-rabbit HRP-conjugated IgG (Sigma-Aldrich; St. Louis, Mo.) and 3, 3′,5,5′-tetramethylbenzidine (TMB) (Calbiochem). To evaluate protein-protein interactions, the inventors performed ELISA on 96-well plates coated with 1 μg/mL of recombinant candidate receptors, as indicated. Blocking of exposed non-specific binding sites was performed with PBS containing either 2% gelatin or 1% BSA, as indicated. Ligand candidates were added to the wells at different concentrations, as indicated. Specific binding was detected by incubation with appropriate primary and secondary antibodies. For capture experiments, immobilized His6-ANXA2 and ANXAS were incubated with recombinant GST-prohibitin. Protein interaction, assessed by immunoblotting with anti-GST antibody, was detected with anti-rabbit or anti-goat secondary alkaline phosphatase-conjugated polyclonal antibodies.

[5] = target: T4, ANXAS (Homo sapiens, UniProt P08758); assay: Capture of GST-prohibitin with immobilized control His6-ANXAS; format: binding; settings: recombinant GST-conjugated protein (FIG. 3E)
T4 construct: purchased AmProx
T4 sequence (P08758 1-320): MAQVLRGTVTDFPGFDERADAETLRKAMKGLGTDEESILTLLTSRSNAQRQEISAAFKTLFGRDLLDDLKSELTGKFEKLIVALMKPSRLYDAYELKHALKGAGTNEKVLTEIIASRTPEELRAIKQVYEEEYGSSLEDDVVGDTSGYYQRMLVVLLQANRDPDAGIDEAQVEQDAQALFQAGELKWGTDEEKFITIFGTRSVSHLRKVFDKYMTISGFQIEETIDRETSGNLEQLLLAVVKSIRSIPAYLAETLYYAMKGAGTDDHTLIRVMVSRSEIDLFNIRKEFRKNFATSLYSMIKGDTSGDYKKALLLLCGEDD
Protocol: as §2

[6] = target: B3; assay: affinity capture on monoavidin beads loaded with biotinylated peptide, from a membrane extract of human bone marrow cells; SDS-PAGE
Source text: (B) Liquid chromatography-mass spectrometry (LC-MS/MS) of peptides matching the candidate receptor PR-3. Peptides identified are underlined. […] Arrow: ˜35 kDa band specific to the RAGE-like peptides.

[7] = target: T5, His6-ANXA5 (UniProt P08758 1-320, limits assumed); assay: capture of GST-prohibitin on immobilized His6-annexin, immunoblot with anti-GST antibody
T5 construct: also called ANXAS (so in the source); control His6-ANXAS; not shown: His6 tag
T5 sequence (looked up): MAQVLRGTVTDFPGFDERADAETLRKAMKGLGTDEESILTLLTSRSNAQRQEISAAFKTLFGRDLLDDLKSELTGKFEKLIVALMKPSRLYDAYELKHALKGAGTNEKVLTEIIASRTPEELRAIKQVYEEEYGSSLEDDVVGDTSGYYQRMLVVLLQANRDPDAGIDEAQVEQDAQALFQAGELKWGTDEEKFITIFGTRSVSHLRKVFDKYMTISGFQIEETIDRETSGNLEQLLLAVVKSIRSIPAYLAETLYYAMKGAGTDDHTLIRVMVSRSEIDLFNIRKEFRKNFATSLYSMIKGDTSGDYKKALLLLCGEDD

[8] = target: T6, BMPRIA-Fc (UniProt P36894 24-152); assay: ELISA on immobilized PR-3
T6 construct: Bought (R&D Systems); control protein; also called Fc-BMPRIA; not shown: Fc tag
T6 sequence (P36894 24-152): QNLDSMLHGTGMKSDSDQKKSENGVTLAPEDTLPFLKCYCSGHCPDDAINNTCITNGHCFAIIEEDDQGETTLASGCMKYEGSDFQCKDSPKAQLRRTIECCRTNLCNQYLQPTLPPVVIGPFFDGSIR

[9] = target: T7, BSA (bovine, UniProt P02769 25-607); assay: ELISA on immobilized PR-3
T7 construct: Control protein added to immobilized PR-3; also called bovine serum albumin; control protein
T7 sequence (P02769 25-607 limits assumed): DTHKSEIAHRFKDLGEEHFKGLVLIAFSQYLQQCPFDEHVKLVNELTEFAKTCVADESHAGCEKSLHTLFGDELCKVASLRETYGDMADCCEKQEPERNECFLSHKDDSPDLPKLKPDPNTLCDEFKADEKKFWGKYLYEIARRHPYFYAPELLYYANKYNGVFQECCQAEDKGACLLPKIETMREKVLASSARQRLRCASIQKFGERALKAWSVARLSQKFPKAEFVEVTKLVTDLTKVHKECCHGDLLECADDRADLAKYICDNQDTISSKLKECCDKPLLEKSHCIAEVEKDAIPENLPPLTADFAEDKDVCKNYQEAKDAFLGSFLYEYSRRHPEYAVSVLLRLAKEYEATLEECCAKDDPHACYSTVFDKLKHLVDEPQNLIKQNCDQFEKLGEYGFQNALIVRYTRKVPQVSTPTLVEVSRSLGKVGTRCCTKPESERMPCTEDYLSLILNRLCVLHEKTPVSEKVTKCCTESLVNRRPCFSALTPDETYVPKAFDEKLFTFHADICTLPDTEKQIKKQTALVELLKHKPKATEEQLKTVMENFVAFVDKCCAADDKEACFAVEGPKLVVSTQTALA

Molecule: CKGGRAKDC
inhibition of CKGGRAKDC-displaying phage binding to prohibitin by synthetic peptide [1]: specifically inhibited in a concentration-dependent manner
localization and internalization in WAT vasculature [2]: localized to and internalized by cells of mouse WAT vasculature

inhibition of CWELGGGPC-phage binding by synthetic peptide [3]: specifically inhibited
Molecule: CWELGGGPC

binding of prohibitin to ANXA2 [4]: binds to ANXA2
binding of prohibitin to control protein ANXAS [5]: not to the control protein ANXAS
Molecule: prohibitin: recombinant glutathione S-transferase (GST)-conjugated prohibitin

binding result [6]: no binding
B1: negative control peptide CARAC (peptide)
peptide: Biotin-CARAC
modifications: also: cyclized, type and places not given here
notes: Negative control on monoavidin beads; also called control elution peptide

binding result [7]: no binding
B2: GST-prohibitin (other, UniProt P35232 1-272, looked up)
chain: MAAKVFESIGKFGLALAVAGGVVNSALYNVDAGHRAVIFDRFRGVQDIVVGEGTHFLIPWVQKPIIFDCRSRPRNVPVITGSKDLQNVNITLRILFRPVASQLPRIFTSIGEDYDERVLPSITTEILKSVVARFDAGELITQRELVSRQVSDDLTERAATFGLILDDVSLTHLTFGKEFTEAVEAKQVAQQEAERARFVVEKAEQQKKAAIISAEGDSKAAELIANSLATAGDGLIELRKLEAAEDIAYQLSRSRNITYLPAGQSVLLQLPQ
notes: Gift from Dr. Srikumar Chellappan; also called recombinant GST-prohibitin; glutathione S-transferase (GST)-conjugated protein; not shown: glutathione S-transferase (GST) tag

Molecule: B3
binding result [8]: no binding
binding result [9]: no binding
